From the supplement of paper PMC9233669
Fewer inactive variants are shown than the library holds.

Assays:
[1] = system: biotinyl-Ile-oxazolone; assay: self-aminoacylation, catalytic enhancement (BIO) (fold over background); higher = more active; k-Seq, kA / k0A0; sequences stand for … in GGGAAUGGAUCCACAUCUACGAAUUC…UUCACUGCAGACUUGACGAAGCUG
Method in brief: (§1)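 Mutagenized RNA pools with a 21-nt variable region (0.43 μM) were reacted with each biotinyl-aminoacyl-oxazolone at 2–1250 μM for 90 minutes at room temperature, in 50 μL HEPES/NaCl/KCl/MgCl2/CaCl2 buffer containing 5% acetonitrile at pH 6.9–7.0. RNA captured on streptavidin was quantified by triplicate qPCR and by Illumina sequencing. The fraction reacted for each sequence was fit to a pseudo-first-order model with bootstrapping, and catalytic enhancement is the median kA divided by the uncatalyzed rate, taken as the low-activity peak of a bimodal Gaussian fit.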

[2] = system: biotinyl-Met-oxazolone; assay: self-aminoacylation, catalytic enhancement (BMO) (fold over background); higher = more active; k-Seq, kA / k0A0; sequences stand for … in GGGAAUGGAUCCACAUCUACGAAUUC…UUCACUGCAGACUUGACGAAGCUG
Method in brief: as §1

[3] = system: biotinyl-Phe-oxazolone; assay: self-aminoacylation, catalytic enhancement (BFO) (fold over background); higher = more active; k-Seq, kA / k0A0; sequences stand for … in GGGAAUGGAUCCACAUCUACGAAUUC…UUCACUGCAGACUUGACGAAGCUG
Method in brief: as §1

[4] = system: biotinyl-Leu-oxazolone; assay: self-aminoacylation, catalytic enhancement (BLO) (fold over background); higher = more active; k-Seq, kA / k0A0; sequences stand for … in GGGAAUGGAUCCACAUCUACGAAUUC…UUCACUGCAGACUUGACGAAGCUG
Method in brief: as §1

[5] = system: biotinyl-Trp-oxazolone; assay: self-aminoacylation, catalytic enhancement (BWO) (fold over background); higher = more active; k-Seq, kA / k0A0; sequences stand for … in GGGAAUGGAUCCACAUCUACGAAUUC…UUCACUGCAGACUUGACGAAGCUG
Method in brief: as §1

[6] = system: biotinyl-Val-oxazolone; assay: self-aminoacylation, catalytic enhancement (BVO) (fold over background); higher = more active; k-Seq, kA / k0A0; sequences stand for … in GGGAAUGGAUCCACAUCUACGAAUUC…UUCACUGCAGACUUGACGAAGCUG
Method in brief: as §1

Row | Sequence | self-aminoacylation [1] | self-aminoacylation [2] | self-aminoacylation [3] | self-aminoacylation [4] | self-aminoacylation [5] | self-aminoacylation [6]
1 | CCACACUGCAAGCAAUCAGUC [Fam1B.1 aminoacylation ribozyme variant] | 0.79 | 0.584 | 1.1 | 0.852 | 0.551 | 0.741
2 | AUUCACCUAGGUCAUCGGAAG [Fam2.2 aminoacylation ribozyme variant] | 0.622 | 0.562 | 0.472 | 0.541 | 0.705 | 0.782
3 | AUUCACCUAGGUCAGAGGGUG [Fam2.2 aminoacylation ribozyme variant] | 1.1 | 1.36 | 4.38 | 1.49 | 1.68 | 1.14
4 | CCACAUCUCAAGCAAUCGGUC [Fam1B.1 aminoacylation ribozyme variant] | 1.3 | 0.985 | 1.41 | 1.19 | 1.08 | 1.33
5 | AUUGCCCUGGUUAUCGAGUGA [Fam2.1 aminoacylation ribozyme variant] | 4.09 | 8.87 | 58.7 | 9.13 | 10.7 | 4.17
6 | AAGUUGGCUUAUAGUCGCAAG [Fam3.1 aminoacylation ribozyme variant] | 1.59 | 1.94 | 2.35 | 1.64 | 1.7 | 1.61
7 | CAACUUCAAAAAAUCGGUCUG [Fam1A.1 aminoacylation ribozyme variant] | 1.7 | 1.15 | 14.8 | 1.46 | 11.9 | 1.31
8 | CUACUCCAAACAAGCGGUCUG [Fam1A.1 aminoacylation ribozyme variant] | 1.2 | 1.13 | 2.15 | 0.802 | 0.584 | 1.14
9 | AAGGUUGCUAAAAGUCGCAAG [Fam3.1 aminoacylation ribozyme variant] | 1.62 | 1.52 | 4.28 | 1.6 | 1.93 | 1.67
10 | CUUCUUCAAACAAUCGGCCUG [Fam1A.1 aminoacylation ribozyme variant] | 1.34 | 1.72 | 31.1 | 1.88 | 28.5 | 1.48
11 | CUACUUCAGACAAUCGGUUUG [Fam1A.1 aminoacylation ribozyme variant] | 0.771 | 0.613 | 0.819 | 0.596 | 0.646 | 0.86
12 | ACUACCCUGAUCAUCGAGUGA [Fam2.1 aminoacylation ribozyme variant] | 3.87 | 5.52 | 6.61 | 5.88 | 7.58 | 3.38
13 | CCACACUGCAGGCAAUCGGUC [Fam1B.1 aminoacylation ribozyme variant] | 1.44 | 1.76 | 5.92 | 1.57 | 1.38 | 2.17
14 | AUUCCCCUAGGUCAUCGGGGG [Fam2.2 aminoacylation ribozyme variant] | 8.54 | 8.39 | 51.6 | 13.3 | 13.6 | 10.2
15 | AUCACCCUGUUCAUCGAGUGA [Fam2.1 aminoacylation ribozyme variant] | 2.85 | 4.68 | 30 | 5.15 | 5.52 | 2.78
16 | AAGUUUGGUAAUAGUCCCAAG [Fam3.1 aminoacylation ribozyme variant] | 1.32 | 1.05 | 1.39 | 0.963 | 1.04 | 0.864
17 | AUUGACCUAGGUCAUGGGGUG [Fam2.2 aminoacylation ribozyme variant] | 3.08 | 2.92 | 17 | 3.32 | 3.74 | 2.9
18 | AUUCACCUAGGUCACCAGGUG [Fam2.2 aminoacylation ribozyme variant] | 1.51 | 1.51 | 1.24 | 1.61 | 1.64 | 1.49
19 | CUACCGCAAACAAUCGGUCUG [Fam1A.1 aminoacylation ribozyme variant] | 0.857 | 0.981 | 2.36 | 0.896 | 0.689 | 0.961
20 | GUACUUCAACCAAUCGGUCUG [Fam1A.1 aminoacylation ribozyme variant] | 1.39 | 1.39 | 16.5 | 1.59 | 15.1 | 1.28
21 | AGUACCCCGGUCAUCGAGUGA [Fam2.1 aminoacylation ribozyme variant] | 3.7 | 5.52 | 43.9 | 6.8 | 7.21 | 3.75
22 | CUACUUCAAAUAAUCGGGCUG [Fam1A.1 aminoacylation ribozyme variant] | 0.911 | 0.607 | 4.76 | 0.965 | 3.35 | 0.85
23 | CCACACUUUAAGUAAUCGGUC [Fam1B.1 aminoacylation ribozyme variant] | 0.653 | 0.632 | 0.978 | 0.667 | 0.677 | 0.694
24 | UCACACUUCAAGAAAUCGGUC [Fam1B.1 aminoacylation ribozyme variant] | 0.947 | 0.819 | 7.38 | 0.906 | 6.06 | 0.888
25 | CUACUUCAAAGAAUCGGUCUA [Fam1A.1 aminoacylation ribozyme variant] | 0.748 | 0.608 | 1.2 | 0.737 | 0.542 | 0.665
26 | AUUACACUUGUCAUCGAGUGA [Fam2.1 aminoacylation ribozyme variant] | 2.51 | 4.21 | 11.4 | 4.35 | 5.31 | 2.59

Row | Sequence | self-aminoacylation [1] | self-aminoacylation [2] | self-aminoacylation [3] | self-aminoacylation [4] | self-aminoacylation [5] | self-aminoacylation [6]
27 | CAACACUUGAAGCAAUCGGUC [Fam1B.1 aminoacylation ribozyme variant] | 0.911 | 0.731 | 0.601 | 0.842 | 0.696 | 0.828
28 | AUACAGCUAGGUCAUCGGGUG [Fam2.2 aminoacylation ribozyme variant] | 3.25 | 2.96 | 25.1 | 4.04 | 3.64 | 3.09
29 | CUGCUUCAGACAAUCGGUCUG [Fam1A.1 aminoacylation ribozyme variant] | 0.949 | 1.22 | 1.78 | 1.1 | 1.28 | 0.929
30 | AACUUUGCUAAUAGGCGCAAG [Fam3.1 aminoacylation ribozyme variant] | 2.36 | 1.7 | 3.02 | 1.79 | 1.96 | 2.05
31 | AUUCACCGAGUUCAUCGGGUG [Fam2.2 aminoacylation ribozyme variant] | 3.56 | 4.92 | 37.1 | 5.07 | 4.3 | 3.14
32 | AUUACGCUGGUCAGCGAGUGA [Fam2.1 aminoacylation ribozyme variant] | 3.34 | 4.57 | 21.2 | 4.3 | 4.4 | 2.4
33 | AUUCACGUAGGUCAUCGGGUU [Fam2.2 aminoacylation ribozyme variant] | 2.03 | 2.4 | 14.9 | 2.54 | 2.93 | 2.74
34 | AUUCACCUGGGUAAUCGGGUG [Fam2.2 aminoacylation ribozyme variant] | 3.15 | 4.71 | 30.1 | 5.16 | 4.84 | 2.88
35 | CCACACUUCAACCAAUCGGUG [Fam1B.1 aminoacylation ribozyme variant] | 3.05 | 3.66 | 4.06 | 6.37 | 5.38 | 2.91
36 | AUGAGCCUGGUCAUCGAGUGA [Fam2.1 aminoacylation ribozyme variant] | 3.82 | 5.66 | 31.3 | 5.69 | 6.33 | 3.71
37 | AUUCACCUAGGUCAUCGGGUU [Fam2.2 aminoacylation ribozyme variant] | 10.8 | 18.4 | 118 | 26.4 | 13.8 | 9.43
38 | AUUACCCUUGCCAUCGAGUGA [Fam2.1 aminoacylation ribozyme variant] | 3.09 | 6.18 | 35.2 | 5.63 | 7.05 | 3.18
39 | AAGUUUGCUAAGAGUUGCAAG [Fam3.1 aminoacylation ribozyme variant] | 0.797 | 0.665 | 0.74 | 0.86 | 0.97 | 0.757
40 | AUCACACUGGUCAUCGAGUGA [Fam2.1 aminoacylation ribozyme variant] | 4.41 | 6.51 | 42.5 | 6.47 | 8.95 | 4.06
41 | CUACUUCAGACAAUCGUUCUG [Fam1A.1 aminoacylation ribozyme variant] | 0.59 | 0.477 | 0.453 | 0.512 | 0.342 | 0.659
42 | CCACACCUCAAGCAAUUGGUC [Fam1B.1 aminoacylation ribozyme variant] | 0.937 | 0.699 | 1.05 | 0.873 | 0.738 | 0.754
43 | AUCACCCUGGCCAUCGAGUGA [Fam2.1 aminoacylation ribozyme variant] | 3.91 | 6.12 | 32 | 6.04 | 7.58 | 3.96
44 | CUACUUCACUCAAUCGGUCUG [Fam1A.1 aminoacylation ribozyme variant] | 0.732 | 0.72 | 0.865 | 0.719 | 0.651 | 0.934
45 | CCACUUCAAACAAUCGGUGUG [Fam1A.1 aminoacylation ribozyme variant] | 1.13 | 1.79 | 12.5 | 2.34 | 9.94 | 1.33
46 | AAGUUUGCUAAUCGUCGCUAG [Fam3.1 aminoacylation ribozyme variant] | 0.976 | 0.844 | 1.07 | 0.87 | 0.871 | 0.834
47 | AUUACCCUGGUCAUCGGGUGG [Fam2.1 aminoacylation ribozyme variant] | 22.6 | 68 | 395 | 80.6 | 81.4 | 26.3
48 | AAUACCCUAGUCAUCGAGUGA [Fam2.1 aminoacylation ribozyme variant] | 2.46 | 4.24 | 15.4 | 4.49 | 5.18 | 2.64
49 | CUACUUCAAACAAUCGUUCAG [Fam1A.1 aminoacylation ribozyme variant] | 0.658 | 0.566 | 0.81 | 0.497 | 0.523 | 0.769
50 | CUACUUCAAACAAUCGUCCUG [Fam1A.1 aminoacylation ribozyme variant] | 0.562 | 0.407 | 0.798 | 0.394 | 0.491 | 0.791
51 | AUUCACCUACGUCAUCGGUUG [Fam2.2 aminoacylation ribozyme variant] | 0.789 | 0.738 | 0.512 | 0.647 | 0.436 | 1.05
